Columns and labels:
[1] = tested on: Nc1ncnc2c1ncn2[C@@H]1O[C@H](COP(=O)(O)OP(=O)(O)OP(=O)(O)O)[C@@H](O)[C@H]1O; assay: purified protein; conditions: basal ATPase, buffer presumably as for PfHsp70-z (pH 7.5, MgCl2), kcat unit as printed
[2] = target: hHsp70 (Homo sapiens) (UniProt P0DMV8); assay: SPR; conditions: cited from earlier work
[3] = target: Plasmodium falciparum Hsp70-z (PfHsp70-z), recombinant (His)6-PfHsp70-z (Plasmodium falciparum); assay: SPR; ProteOn XPR36, GLC chip, ligand immobilised by amine coupling (PfHsp70-z, 187 RU); analyte 125-2000 nM at 50 ul/min; 25°C; PBS-Tween with 20 mM EDTA, pH 7.4; no nucleotide; Langmuir model
[4] = target: Plasmodium falciparum Hsp70-z (PfHsp70-z), recombinant (His)6-PfHsp70-z (Plasmodium falciparum); assay: SPR; ProteOn XPR36, GLC chip, ligand immobilised by amine coupling (PfHsp70-z, 187 RU); analyte 125-2000 nM at 50 ul/min; 25°C; PBS-Tween with 20 mM EDTA, pH 7.4; with 5 mM ADP; Langmuir model
[5] = target: Plasmodium falciparum Hsp70-z (PfHsp70-z), recombinant (His)6-PfHsp70-z (Plasmodium falciparum); assay: SPR; ProteOn XPR36, GLC chip, ligand immobilised by amine coupling (PfHsp70-z, 187 RU); analyte 125-2000 nM at 50 ul/min; 25°C; PBS-Tween with 20 mM EDTA, pH 7.4; with 5 mM ATP; Langmuir model

Chain of hHsp70 (P0DMV8 2-641): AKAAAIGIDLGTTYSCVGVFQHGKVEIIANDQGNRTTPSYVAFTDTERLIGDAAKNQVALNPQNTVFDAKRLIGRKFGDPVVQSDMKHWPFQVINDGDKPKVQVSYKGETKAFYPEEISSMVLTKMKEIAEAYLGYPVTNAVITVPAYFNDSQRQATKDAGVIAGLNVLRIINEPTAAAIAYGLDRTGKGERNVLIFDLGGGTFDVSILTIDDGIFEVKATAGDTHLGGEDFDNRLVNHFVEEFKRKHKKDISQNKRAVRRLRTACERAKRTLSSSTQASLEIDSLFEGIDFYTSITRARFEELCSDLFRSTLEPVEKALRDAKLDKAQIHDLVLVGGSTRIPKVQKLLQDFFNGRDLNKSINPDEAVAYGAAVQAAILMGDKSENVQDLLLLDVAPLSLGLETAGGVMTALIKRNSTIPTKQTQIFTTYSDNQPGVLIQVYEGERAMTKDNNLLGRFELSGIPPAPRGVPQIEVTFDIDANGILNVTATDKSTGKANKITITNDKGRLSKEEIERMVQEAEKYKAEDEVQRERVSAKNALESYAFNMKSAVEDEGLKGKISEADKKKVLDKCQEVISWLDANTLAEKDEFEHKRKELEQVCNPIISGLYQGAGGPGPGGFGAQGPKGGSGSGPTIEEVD

In the case of PfHsp70-1 (Plasmodium falciparum 3D7), the Km [1] is reported as 428 (+/- 5) μM and the Vmax [1] is reported as 0.0246 µmol/min/mg.
For hHsp70 (from UniProt P0DMV8), the Kd [2] is given as 4.5 nM.
Substance “Plasmodium falciparum Hsp70-z (PfHsp70-z), recombinant (His)6-PfHsp70-z (natural protein)” has a Kd [3] of 7.97 nM, a koff [3] of 9.54e-05 s⁻¹ and a kon [3] of 12000 M⁻¹ s⁻¹. It also gave a Kd [4] of 11.5 nM, a koff [4] of 7.6e-05 s⁻¹ and a kon [4] of 6620 M⁻¹ s⁻¹. For the same substance, the Kd [5] was 11.3 nM, the koff [5] was 3.2e-05 s⁻¹ and the kon [5] was 2840 M⁻¹ s⁻¹.

Source: article PMC4471362
